Assay results published in patent US20100260668A1 (published 2010).

B1: DVD468 (bispecific antibody, IgG1)
VH: EVQLVESGGGLVQPGGSLRLSCAASGFTINASWIHWVRQAPGKGLEWVGAIYPYSGYTNYADSVKGRFTISADTSKNTAYLQMNSLRAEDTAVYYCARWGHSTSPWAMDYWGQGTLVTVSSASTKGPEVQLVESGGGLVQPGGSLRLSCAASGFTFTDNWISWVRQAPGKGLEWVGYISPNSGFTYYADSVKGRFTISADTSKNTAYLQMNSLRAEDTAVYYCARDNFGGYFDYWGQGTLVTVSS
VL: DIQMTQSPSSLSASVGDRVTITCRASQVIRRSLAWYQQKPGKAPKLLIYAASNLASGVPSRFSGSGSGTDFTLTISSLQPEDFATYYCQQSNTSPLTFGQGTKVEIKRTVAAPDIQMTQSPSSLSASVGDRVTITCRASQDVSTAVAWYQQKPGKAPKLLIYSASFLYSGVPSRFSGSGSGTDFTLTISSLQPEDFATTYYCQQSYTGTVTFGQGTKVEIKR
notes: DVD-Ig, outer AB071 / inner AB015; HC linker short, LC linker short; also called DVD468H; DVD468L
B2: DVD480 (bispecific antibody, IgG1)
VH: EVQLVESGGGLVQPGGSLRLSCAASGFTINASWIHWVRQAPGKGLEWVGAIYPYSGYTNYADSVKGRFTISADTSKNTAYLQMNSLRAEDTAVYYCARWGHSTSPWAMDYWGQGTLVTVSSASTKGPSVFPLAPEVQLVESGGGLVQPGGSLRLSCAASGFTFTDNWISWVRQAPGKGLEWVGYISPNSGFTYYADSVKGRFTISADTSKNTAYLQMNSLRAEDTAVYYCARDNFGGYFDYWGQGTLVTVSS
VL: B1 VL
notes: DVD-Ig, outer AB071 / inner AB015; HC linker long, LC linker short; also called DVD480H; DVD480L
B3: DVD486 (bispecific antibody, IgG1)
VH: B1 VH
VL: DIQMTQSPSSLSASVGDRVTITCRASQVIRRSLAWYQQKPGKAPKLLIYAASNLASGVPSRFSGSGSGTDFTLTISSLQPEDFATYYCQQSNTSPLTFGQGTKVEIKRTVAAPSVFIFPPDIQMTQSPSSLSASVGDRVTITCRASQDVSTAVAWYQQKPGKAPKLLIYSASFLYSGVPSRFSGSGSGTDFTLTISSLQPEDFATTYYCQQSYTGTVTFGQGTKVEIKR
notes: DVD-Ig, outer AB071 / inner AB015; HC linker short, LC linker long; also called DVD486H; DVD486L
B4: DVD474 (bispecific antibody, IgG1)
VH: B2 VH
VL: B3 VL
notes: DVD-Ig, outer AB071 / inner AB015; HC linker long, LC linker long; also called DVD474H; DVD474L
B5: DVD473 (bispecific antibody, IgG1)
VH: EVQLVESGGGLVQPGGSLRLSCAASGFTFTDNWISWVRQAPGKGLEWVGYISPNSGFTYYADSVKGRFTISADTSKNTAYLQMNSLRAEDTAVYYCARDNFGGYFDYWGQGTLVTVSSASTKGPSVFPLAPEVQLVESGGGLVQPGGSLRLSCAASGFTINASWIHWVRQAPGKGLEWVGAIYPYSGYTNYADSVKGRFTISADTSKNTAYLQMNSLRAEDTAVYYCARWGHSTSPWAMDYWGQGTLVTVSS
VL: DIQMTQSPSSLSASVGDRVTITCRASQDVSTAVAWYQQKPGKAPKLLIYSASFLYSGVPSRFSGSGSGTDFTLTISSLQPEDFATTYYCQQSYTGTVTFGQGTKVEIKRTVAAPSVFIFPPDIQMTQSPSSLSASVGDRVTITCRASQVIRRSLAWYQQKPGKAPKLLIYAASNLASGVPSRFSGSGSGTDFTLTISSLQPEDFATYYCQQSNTSPLTFGQGTKVEIKR
notes: DVD-Ig, outer AB015 / inner AB071; HC linker long, LC linker long; also called DVD473H; DVD473L
B6: DVD465 (bispecific antibody, IgG1)
VH: EVQLVESGGGLVQPGGSLRLSCAASGFTFTDNWISWVRQAPGKGLEWVGYISPNSGFTYYADSVKGRFTISADTSKNTAYLQMNSLRAEDTAVYYCARDNFGGYFDYWGQGTLVTVSSASTKGPEVQLVESGGGLVQPGGSLRLSCAASGFTISDYWIHWVRQAPGKGLEWVAGITPAGGYTYYADSVKGRFTISADTSKNTAYLQMNSLRAEDTAVYYCARFVFFLPYAMDYWGQGTLVTVSS
VL: DIQMTQSPSSLSASVGDRVTITCRASQDVSTAVAWYQQKPGKAPKLLIYSASFLYSGVPSRFSGSGSGTDFTLTISSLQPEDFATTYYCQQSYTGTVTFGQGTKVEIKRTVAAPDIQMTQSPSSLSASVGDRVTITCRASQDVSTAVAWYQQKPGKAPKLLIYSASFLYSGVPSRFSGSGSGTDFTLTISSLQPEDFATYYCQQSYTTPPTFGQGTKVEIKR
notes: HC linker short, LC linker short; also called DVD465H; DVD465L
B7: DVD467 (bispecific antibody, IgG1)
VH: EVQLVESGGGLVQPGGSLRLSCAASGFTFTDNWISWVRQAPGKGLEWVGYISPNSGFTYYADSVKGRFTISADTSKNTAYLQMNSLRAEDTAVYYCARDNFGGYFDYWGQGTLVTVSSASTKGPEVQLVESGGGLVQPGGSLRLSCAASGFTINASWIHWVRQAPGKGLEWVGAIYPYSGYTNYADSVKGRFTISADTSKNTAYLQMNSLRAEDTAVYYCARWGHSTSPWAMDYWGQGTLVTVSS
VL: DIQMTQSPSSLSASVGDRVTITCRASQDVSTAVAWYQQKPGKAPKLLIYSASFLYSGVPSRFSGSGSGTDFTLTISSLQPEDFATTYYCQQSYTGTVTFGQGTKVEIKRTVAAPDIQMTQSPSSLSASVGDRVTITCRASQVIRRSLAWYQQKPGKAPKLLIYAASNLASGVPSRFSGSGSGTDFTLTISSLQPEDFATYYCQQSNTSPLTFGQGTKVEIKR
notes: DVD-Ig, outer AB015 / inner AB071; HC linker short, LC linker short; also called DVD467H; DVD467L
B8: DVD479 (bispecific antibody, IgG1)
VH: B5 VH
VL: B7 VL
notes: DVD-Ig, outer AB015 / inner AB071; HC linker long, LC linker short; also called DVD479H; DVD479L
B9: DVD485 (bispecific antibody, IgG1)
VH: B7 VH
VL: B5 VL
notes: DVD-Ig, outer AB015 / inner AB071; HC linker short, LC linker long; also called DVD485H; DVD485L

Biological target: VEGF (VEGF 1-165 aa, R&D Systems 293-VE-010) (UniProt P15692 27-191)
Sequence (P15692 other isoform, or with tags, fused parts or gaps limits assumed): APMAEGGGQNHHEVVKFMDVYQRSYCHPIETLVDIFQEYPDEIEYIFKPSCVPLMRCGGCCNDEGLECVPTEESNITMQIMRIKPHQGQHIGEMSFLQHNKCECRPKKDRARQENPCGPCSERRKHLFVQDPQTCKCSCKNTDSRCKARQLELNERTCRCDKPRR
Assay: Direct bind ELISA, VEGF coated on plate;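 also: ELISA screening of antibodies for binding to the plate-coated target antigen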

Binder	EC50
B1	25.6 nM
B2	23 nM
B3	28 nM
B4	17.9 nM
B5	388 nM
B6	396 nM
B7	1810 nM
B8	456 nM
B9	121 nM
